Legend:
Type in all cases: biochemical
[1] = Enantioselectivity, GC analysis of hydrolysis of acetic acid esters
Method: To assay the activity of the enzymes on a range of acetic acid esters gas chromatography was used. The samples were analyzed for the production of chiral alcohols by the gas chromatograph GC-17A (Shimadzu, Duisburg, Germany) equipped with FID detector and CP-Chirasil-DEX CB (Chrompack (Middelburg, Netherlands), 25 m×0.25 mm ID) at a helium flow of 1.3 ml/min. The temperature programme included: 5 min at 60° C., followed by an increase of 5° C. per min until 190° C. was reached. For the GC analysis, activity-tests were run in 1 M Tris buffered solutions and using 10 mM substrates dissolved in DMSO as 0.1 M stock solutions. 2 μg of the enzyme were added and tests incubated over night before the corresponding alcohols could be extracted by treatment with acetic acid ethyl ester and analyzed by GC.

[2] = Titration assay with triglycerides; conditions: 10 mM, 37° C., pH 7.0
Method: (§1) Enzyme activities on the substrates triacetin, tripropionin, tributyrin, tricaprylene, trilaurin and vinyl-substrates (vinyl-acetate, ˜propionate, ˜butyrate, ˜caproate, ˜caprylate and ˜laurate) were determined using a standard titration assay with minor modifications. Tests were performed with a Methrom 718 STAT potentiometric titrator (Herisau, Switzerland) and by using 10 mM NaOH for titration. The substrates at 10 mM concentration were emulsified in 20 ml reaction buffer containing 2 mM Tris/HCl pH 7.0. After addition of 7.5 μg of the purified enzyme the NaOH consumption was recorded at a reaction temperature of 37° C. One unit was defined as the amount of enzyme that released […] of fatty acid per min.

[3] = Enzyme activity with pNP-acylesters of different chain length; conditions: substrate pNP-caproate (C6); 4 mM, 45° C., pH 7.2
Method: Enzyme activity tests were performed by incubating the enzyme with 4 mM substrate at 45° C. in 100 mM Tris-HCl buffer at pH 7.2, unless otherwise indicated. The reaction was measured at 410 nm. One unit is defined as the amount of enzyme catalyzing the appearance of 1 μmol of free p-nitrophenol/min. Enzyme activity against pNP-acylesters (butyrate, valerate, caproate, octanoate, decanoate and palmitate) was tested under the above conditions. […] The enzyme according to SEQ ID NO: 6 converted pNP-caproate with a specific activity of 80.0 U/mg.

[4] = Titration assay with vinyl acid esters; conditions: 10 mM, 37° C., pH 7.0
Method: as §1

[5] = substrate Acetic acid ester of tetrahydronaphthylamin
[6] = substrate acetic acid ester of (+/−)-1-octin-3-ol, 10 mM, over night
[7] = substrate acetic acid ester of phenylethylamin
[8] = substrate cis-3,5-diacetoxy-1-cyclopenten
[9] = substrate cis-3,5-diacetoxy-1-cyclopenten, conversion for the preferred enantiomer
[10] = substrate isopropylidenglycerolacetate (rac.), values marked ^1: substrate conversion after 12 h

B1: EstCL1: recombinant enzyme having carboxyl esterase activity, amino acid sequence SEQ ID NO: 6, family IV of bacterial lipolytic enzymes (protein)
chain: MTDPYVRPDVAMFLAFLNNAPGPKLHELSAPEARMVQNAMRDMADAPVGELAVMRDLEIPGPAGTIMARLYDKQPGRGSGPAMVFFHGGGFVIGNIHTYEPFCAEVARLLDLPVISVEYRLGPESPFPAAFEDCEAAARWVASKPEALGFDVSGLILSGDSAGGNLTISTSMALRDVAAGVPVIAQMPIYPVVTLDPDWPSMRDFADGYLLTAELIQWFGDGHGASGEDYRTHPLDFDQSGMPPTVITTASLDPLRDQGMAYFEKLKAAGVRAEHISAEGNIHGHINVRKGIPSSQQDVEGYVTALTAMLAGVMAEA
modifications: metagenomic sequence
For B1, the “conversion % of 1.e” value [1, 5] was 0%, the “conversion % of 2.e” value [1, 5] was 0% and the “conversion % of 1.e” value [1, 6] was 0%. For the same molecule, the “conversion % of 2.e” value [1, 6] was 0%, the “conversion % of 1.e” value [1, 7] was 0% and the “conversion % of 2.e” value [1, 7] was 0%. For the same molecule, the “conversion % of 2.e” value [1, 8] was 0%, the ee % [1, 8] was 100% and the “conversion % of 1.e” value [1, 9] was 100%. For the same molecule, the ee % ([1]; substrate isopropylidenglycerolacetate (rac.)) was 100%, the “conversion % of 1.e” value [1, 10] was 0% and the “conversion % of 2.e” value [1, 10] was 35%. For the same molecule, the “conversion % of 1.e” value ([1]; substrate menthylacetate, 1. enantiomer (+)) was 0%, the “conversion % of 2.e” value ([1]; substrate menthylacetate, 2.e. (−)) was 0% and the specific activity ([2]; substrate triacetin (C2)) was 120 U/mg. The specific activity ([2]; substrate tributyrin (C4)) was 330 U/mg, the specific activity ([2]; substrate tricaprylin (C8)) was 0 U/mg and the specific activity ([2]; substrate trilaurin (C12)) was 0 U/mg. It also gave a specific activity ([2]; substrate tripropionin (C3)) of 200 U/mg, a specific activity [3] of 80.0 U/mg and a specific activity ([4]; substrate vinyl acetate (C2)) of 0 U/mg. It also gave a specific activity ([4]; substrate vinyl butyrate (C4)) of 550 U/mg, a specific activity ([4]; substrate vinyl caprylate (C8)) of 80 U/mg and a specific activity ([4]; substrate vinyl laurinate (C12)) of 0 U/mg. The specific activity ([4]; substrate vinyl propionate (C3)) was 173 U/mg.

B2: EstCL2: recombinant enzyme having carboxyl esterase activity, amino acid sequence SEQ ID NO: 8, family V of bacterial lipolytic enzymes (protein)
chain: MKRKTIFSRLSFAALGLFAVATIALDAKAATTCPAGAICRYEEAPGSYSGNGPYTVRSYTLSRLQTPGGATVYYPSNARPPFSGVVFTPPYTGIQSMFAAWGPFFASHGIVMVTMDTNTTLDTVDQRASQQKQVLDALKRENTRSASALYGKLNTARLGAVGWSMGGGATWINSAEYAGLKSAMSLAGHNLTTVDIDSRGGNTRIPTLILNGALDLTYLGGLGQSDGVYNNIRSGVPKVFYEVSSAGHFAWGSPTSANRAVAGIALAFHKTFLDGDTRWVSYIKRPSSDVSKWATASLPQ
modifications: metagenomic sequence
In the case of B2, the “conversion % of 2.e” value [1, 8] is reported as 0%, the “conversion % of 1.e” value [1, 9] is reported as 100% and the ee % ([1]; substrate cis-3,5-diacetoxy-1-cyclopenten, listed as EstCl2) is reported as 76.3%. For the same molecule, the ee % ([1]; substrate cis-3,5-diacetoxy-1-cyclopenten, listed as SEQ ID NO: 8) was 76%.

Source: patent US8956838B2, “Carboxyl esterase polypeptides” (B.R.A.I.N., priority 2006, dated 2015)
